These results are taken from PMC11825685 (Nature Communications, 2024).

The target of series [1] is Mycobacterium tuberculosis (Mtb) PhoP, phosphorylated (Mycobacterium tuberculosis) (UniProt P71814). Nature of the series: cryo-EM structure.
The target of series [2] is T1, Mtb RNAP β subunit (Mycobacterium tuberculosis, UniProt P9WGY9 1-1178).
T1 sequence: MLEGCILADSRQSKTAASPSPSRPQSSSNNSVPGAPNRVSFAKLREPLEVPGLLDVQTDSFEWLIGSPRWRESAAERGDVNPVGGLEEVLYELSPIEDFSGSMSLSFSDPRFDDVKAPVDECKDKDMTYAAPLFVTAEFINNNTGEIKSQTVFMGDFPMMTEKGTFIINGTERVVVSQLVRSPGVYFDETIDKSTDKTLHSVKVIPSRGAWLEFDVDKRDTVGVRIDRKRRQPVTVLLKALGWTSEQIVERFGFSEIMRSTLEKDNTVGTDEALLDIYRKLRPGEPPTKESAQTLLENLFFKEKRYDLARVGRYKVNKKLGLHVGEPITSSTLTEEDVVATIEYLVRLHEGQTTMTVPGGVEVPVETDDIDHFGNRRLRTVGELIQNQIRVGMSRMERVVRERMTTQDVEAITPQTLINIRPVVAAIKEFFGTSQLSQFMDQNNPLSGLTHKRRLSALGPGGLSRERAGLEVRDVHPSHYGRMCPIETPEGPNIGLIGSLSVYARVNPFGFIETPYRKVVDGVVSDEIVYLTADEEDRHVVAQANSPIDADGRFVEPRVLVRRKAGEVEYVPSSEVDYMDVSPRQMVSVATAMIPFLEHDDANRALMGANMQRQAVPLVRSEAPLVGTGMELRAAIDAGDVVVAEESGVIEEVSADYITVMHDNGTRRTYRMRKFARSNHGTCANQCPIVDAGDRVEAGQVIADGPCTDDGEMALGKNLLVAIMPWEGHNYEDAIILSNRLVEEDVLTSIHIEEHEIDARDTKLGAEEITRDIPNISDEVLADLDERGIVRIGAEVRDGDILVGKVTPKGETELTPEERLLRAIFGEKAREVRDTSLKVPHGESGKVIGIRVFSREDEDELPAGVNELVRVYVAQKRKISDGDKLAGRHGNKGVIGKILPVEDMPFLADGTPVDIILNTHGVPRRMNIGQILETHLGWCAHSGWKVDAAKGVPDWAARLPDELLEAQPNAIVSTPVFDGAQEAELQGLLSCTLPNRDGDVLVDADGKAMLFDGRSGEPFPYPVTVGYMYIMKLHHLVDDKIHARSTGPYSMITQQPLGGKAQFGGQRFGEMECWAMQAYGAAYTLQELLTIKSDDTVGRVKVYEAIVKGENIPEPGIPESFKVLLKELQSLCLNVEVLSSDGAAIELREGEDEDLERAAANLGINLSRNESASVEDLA
Nature of the series: cryo-EM structure.

Series [3] concerns the target T2, Mtb RNAP σ^A (Mycobacterium tuberculosis, UniProt P9WGI1).
T2 sequence: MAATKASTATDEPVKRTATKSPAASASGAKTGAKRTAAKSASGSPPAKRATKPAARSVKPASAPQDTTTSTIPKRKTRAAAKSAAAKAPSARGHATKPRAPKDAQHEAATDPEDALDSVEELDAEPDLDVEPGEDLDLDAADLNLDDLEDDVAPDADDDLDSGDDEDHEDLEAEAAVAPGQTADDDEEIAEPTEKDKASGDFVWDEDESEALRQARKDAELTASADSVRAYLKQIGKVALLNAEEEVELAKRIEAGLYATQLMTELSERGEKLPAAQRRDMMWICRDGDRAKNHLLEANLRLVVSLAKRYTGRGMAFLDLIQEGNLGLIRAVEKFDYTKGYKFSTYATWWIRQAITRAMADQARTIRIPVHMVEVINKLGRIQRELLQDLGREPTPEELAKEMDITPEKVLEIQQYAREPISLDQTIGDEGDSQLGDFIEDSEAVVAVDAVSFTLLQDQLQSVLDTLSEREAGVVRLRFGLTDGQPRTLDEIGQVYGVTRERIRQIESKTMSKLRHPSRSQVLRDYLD
Kind of series: cryo-EM structure.

For series [4], the target named is T3, Mtb RNAP α subunit (Mycobacterium tuberculosis, UniProt P9WGZ1).
T3 sequence: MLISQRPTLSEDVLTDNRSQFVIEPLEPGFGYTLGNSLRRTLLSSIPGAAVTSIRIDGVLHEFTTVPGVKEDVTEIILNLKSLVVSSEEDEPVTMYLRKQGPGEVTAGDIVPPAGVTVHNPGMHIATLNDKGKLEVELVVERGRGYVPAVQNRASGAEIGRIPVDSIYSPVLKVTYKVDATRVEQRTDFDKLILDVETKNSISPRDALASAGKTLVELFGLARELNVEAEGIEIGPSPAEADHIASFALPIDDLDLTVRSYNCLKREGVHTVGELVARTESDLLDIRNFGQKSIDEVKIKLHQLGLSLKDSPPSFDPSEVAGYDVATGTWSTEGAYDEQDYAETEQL
Nature of the series: cryo-EM structure.

Series [5] deals with the molecule itself. Kind of series: cryo-EM structure.
Series [6] deals with RNAP holoenzyme (sigma A);GlnR (Mycobacterium …, UniProt P9WGZ1;P9WGY9;P9WGY7;P9WGY5;P9WGI1;O53830 1-347;1-1178;1-1316;1-110;1-528;1-255, |). Kind of series: EMSA. In general terms: Mobility shift assays separate free from complexed probe on a gel.

One may read the stoichiometry N as a count of units in the complex or per binding partner. Molecule “Mycobacterium tuberculosis (Mtb) PhoP, phosphorylated (from UniProt P71814 1-247) (natural protein)” returned a stoichiometry N in series [1] of 2.

B1: Mtb GlnR (natural protein)
chain: MLELLLLTSELYPDPVLPALSLLPHTVRTAPAEASSLLEAGNADAVLVDARNDLSSGRGLCRLLSSTGRSIPVLAVVSEGGLVAVSADWGLDEILLLSTGPAEIDARLRLVVGRRGDLADQESLGKVSLGELVIDEGTYTARLRGRPLDLTYKEFELLKYLAQHAGRVFTRAQLLHEVWGYDFFGGTRTVDVHVRRLRAKLGPEHEALIGTVRNVGYKAVRPARGRPPAADPDDEDADPGRDGMQEPLVDPLRSQ
B1: the binding result in series [2], in series [3], in series [4] and in series [5] was “binds” in each case.

B2: phoU promoter (mango-fused) (dsDNA)
DNA 1: ACCTCGAACACTCGTCGCCCAGAGTTCACCTTGGAGCCAGGGACGGTTCATTTGGGGTGCCGGAAACGGACGCGTACAGGCCGGAACGTGTAAGCGTGGGGGCACGGCGGGGGGCGCGAAGCCGGCACGTACGAAGGAAGGATTGGTATGTGGTATATTCGTACGTGCC
DNA 2: GGCACGTACGAATATACCACATACCAATCCTTCCTTCGTACGTGCCGGCTTCGCGCCCCCCGCCGTGCCCCCACGCTTACACGTTCCGGCCTGTACGCGTCCGTTTCCGGCACCCCAAATGAACCGTCCCTGGCTCCAAGGTGAACTCTGGGCGACGAGTGTTCGAGGT
B2: in series [6], the binding result was “no binding”.
